The source of these data is PMC2716658 (Nature structural & molecular biology, 2009).

B3: WAVE1 (subunit of the recombinant human WRC) (natural protein)
chain: MPLVKRNIDPRHLCHTALPRGIKNELECVTNISLANIIRQLSSLSKYAEDIFGELFNEAHSFSFRVNSLQERVDRLSVSVTQLDPKEEELSLQDITMRKAFRSSTIQDQQLFDRKTLPIPLQETYDVCEQPPPLNILTPYRDDGKEGLKFYTNPSYFFDLWKEKMLQDTEDKRKEKRKQKQKNLDRPHEPEKVPRAPHDRRREWQKLAQGPELAEDDANLLHKHIEVANGPASHFETRPQTYVDHMDGSYSLSALPFSQMSELLTRAEERVLVRPHEPPPPPPMHGAGDAKPIPTCISSATGLIENRPQSPATGRTPVFVSPTPPPPPPPLPSALSTSSLRASMTSTPPPPVPPPPPPPATALQAPAVPPPPAPLQIAPGVLHPAPPPIAPPLVQPSPPVARAAPVCETVPVHPLPQGEVQGLPPPPPPPPLPPPGIRPSSPVTVTALAHPPSGLHPTPSTAPGPHVPLMPPSPPSQVIPASEPKRHPSTLPVISDARSVLLEAIRKGIQLRKVEEQREQEAKHERIENDVATILSRRIAVEYSDSEDDSEFDEVDWLE
B5: Sra1 (natural protein)
chain: MAAQVTLEDALSNVDLLEELPLPDQQPCIEPPPSSLLYQPNFNTNFEDRNAFVTGIARYIEQATVHSSMNEMLEEGQEYAVMLYTWRSCSRAIPQVKCNEQPNRVEIYEKTVEVLEPEVTKLMNFMYFQRNAIERFCGEVRRLCHAERRKDFVSEAYLITLGKFINMFAVLDELKNMKCSVKNDHSAYKRAAQFLRKMADPQSIQESQNLSMFLANHNKITQSLQQQLEVISGYEELLADIVNLCVDYYENRMYLTPSEKHMLLKVMGFGLYLMDGSVSNIYKLDAKKRINLSKIDKYFKQLQVVPLFGDMQIELARYIKTSAHYEENKSRWTCTSSGSSPQYNICEQMIQIREDHMRFISELARYSNSEVVTGSGRQEAQKTDAEYRKLFDLALQGLQLLSQWSAHVMEVYSWKLVHPTDKYSNKDCPDSAEEYERATRYNYTSEEKFALVEVIAMIKGLQVLMGRMESVFNHAIRHTVYAALQDFSQVTLREPLRQAIKKKKNVIQSVLQAIRKTVCDWETGHEPFNDPALRGEKDPKSGFDIKVPRRAVGPSSTQLYMVRTMLESLIADKSGSKKTLRSSLEGPTILDIEKFHRESFFYTHLINFSETLQQCCDLSQLWFREFFLELTMGRRIQFPIEMSMPWILTDHILETKEASMMEYVLYSLDLYNDSAHYALTRFNKQFLYDEIEAEVNLCFDQFVYKLADQIFAYYKVMAGSLLLDKRLRSECKNQGATIHLPPSNRYETLLKQRHVQLLGRSIDLNRLITQRVSAAMYKSLELAIGRFESEDLTSIVELDGLLEINRMTHKLLSRYLTLDGFDAMFREANHNVSAPYGRITLHVFWELNYDFLPNYCYNGSTNRFVRTVLPFSQEFQRDKQPNAQPQYLHGSKALNLAYSSIYGSYRNFVGPPHFQVICRLLGYQGIAVVMEELLKVVKSLLQGTILQYVKTLMEVMPKICRLPRHEYGSPGILEFFHHQLKDIVEYAELKTVCFQNLREVGNAILFCLLIEQSLSLEEVCDLLHAAPFQNILPRVHVKEGERLDAKMKRLESKYAPLHLVPLIERLGTPQQIAIAREGDLLTKERLCCGLSMFEVILTRIRSFLDDPIWRGPLPSNGVMHVDECVEFHRLWSAMQFVYCIPVGTHEFTVEQCFGDGLHWAGCMIIVLLGQQRRFAVLDFCYHLLKVQKHDGKDEIIKNVPLKKMVERIRKFQILNDEIITILDKYLKSGDGEGTPVEHVRCFQPPIHQSLASS

Experiment [1] has as its target B3. Kind of experiment: AUC.
The target in the experiment “Sra1” is B5. As to the kind of experiment: co-expression and purification of the complex.

B1: Nap1 (natural protein)
chain: MSRSVLQPSQQKLAEKLTILNDRGVGMLTRLYNIKKACGDPKAKPSYLIDKNLESAVKFIVRKFPAVETRNNNQQLAQLQKEKSEILKNLALYYFTFVDVMEFKDHVCELLNTIDVCQVFFDITVNFDLTKNYLDLIITYTTLMILLSRIEERKAIIGLYNYAHEMTHGASDREYPRLGQMIVDYENPLKKMMEEFVPHSKSLSDALISLQMVYPRRNLSADQWRNAQLLSLISAPSTMLNPAQSDTMPCEYLSLDAMEKWIIFGFILCHGILNTDATALNLWKLALQSSSCLSLFRDEVFHIHKAAEDLFVNIRGYNKRINDIRECKEAAVSHAGSMHRERRKFLRSALKELATVLSDQPGLLGPKALFVFMALSFARDEIIWLLRHADNMPKKSADDFIDKHIAELIFYMEELRAHVRKYGPVMQRYYVQYLSGFDAVVLNELVQNLSVCPEDESIIMSSFVNTMTSLSVKQVEDGEVFDFRGMRLDWFRLQAYTSVSKASLGLADHRELGKMMNTIIFHTKMVDSLVEMLVETSDLSIFCFYSRAFEKMFQQCLELPSQSRYSIAFPLLCTHFMSCTHELCPEERHHIGDRSLSLCNMFLDEMAKQARNLITDICTEQCTLSDQLLPKHCAKTISQAVNKKSKKQTGKKGEPEREKPGVESMRKNRLVVTNLDKLHTALSELCFSINYVPNMVVWEHTFTPREYLTSHLEIRFTKSIVGMTMYNQATQEIAKPSELLTSVRAYMTVLQSIENYVQIDITRVFNNVLLQQTQHLDSHGEPTITSLYTNWYLETLLRQVSNGHIAYFPAMKAFVNLPTENELTFNAEEYSDISEMRSLSELLGPYGMKFLSESLMWHISSQVAELKKLVVENVDVLTQMRTSFDKPDQMAALFKRLSSVDSVLKRMTIIGVILSFRSLAQEALRDVLSYHIPFLVSSIEDFKDHIPRETDMKVAMNVYELSSAAGLPCEIDPALVVALSSQKSENISPEEEYKIACLLMVFVAVSLPTLASNVMSQYSPAIEGHCNNIHCLAKAINQIAAALFTIHKGSIEDRLKEFLALASSSLLKIGQETDKTTTRNRESVYLLLDMIVQESPFLTMDLLESCFPYVLLRNAYHAVYKQSVTSSA
With B1, in experiment [1], the “stoichiometry N” value turned out to be 1.

B2: Abi2 (subunit of the recombinant human WRC) (natural protein)
chain: MAELQMLLEEEIPGGRRALFDSYTNLERVADYCENNYIQSADKQRALEETKAYTTQSLASVAYLINTLANNVLQMLDIQASQLRRMESSINHISQTVDIHKEKVARREIGILTTNKNTSRTHKIIAPANLERPVRYIRKPIDYTILDDIGHGVKWLLRFKVSTQNMKMGGLPRTTPPTQKPPSPPMSGKGTLGRHSPYRTLEPVRPPVVPNDYVPSPTRNMAPSQQSPVRTASVNQRNRTYSSSGSSGGSHPSSRSSSRENSGSGSVGVPIAVPTPSPPSVFPAPAGSAGTPPLPATSASAPAPLVPATVPSSTAPNAAAGGAPNLADGFTSPTPPVVSSTPPTGHPVQFYSMNRPASRHTPPTIGGSLPYRRPPSITSQTSLQNQMNGGPFYSQNPVSDTPPPPPPVEEPVFDESPPPPPPPEDYEEEEAAVVEYSDPYAEEDPPWAPRSYLEKVVAIYDYTKDKEDELSFQEGAIIYVIKKNDDGWYEGVMNGVTGLFPGNYVESIMHYSE
As for B2, in experiment [1], the “stoichiometry N” value was determined as 1.
B3: the binding result in the experiment with Sra1 is “binds”.

B4: HSPC300 (natural protein)
chain: MAGQEDPVQREIHQDWANREYIEIITSSIKKIADFLNSFDMSCRSRLATLNEKLTALERRIEYIEARVTKGETLT
In the case of B4, the “stoichiometry N” value in experiment [1] amounted to 1.
The same measure, in the same setting: the same measure for B5: 1.
